{"source": "patent US9435807B2", "about": "“Use of leucyl tRNA synthetase” (Medicinal Bioconvergence Research Center, priority 2011, dated 2016)", "format_in_all_cases": "biochemical", "key": {"[1]": {"system": "CC(C)C[C@H](N)C(=O)O", "assay": "Leucylation assay, LRS WT", "conditions": "pH 7.6, 37.0 °C", "experimental": "(§1) In FIG. 5b, leucylations by LRS WT and mutants (F50A/Y52A, F50A, and Y52A) were carried out by using 4 μM tRNALeu and 50 nM enzymes.\n(§2) The leucylation assay was carried out in a buffer containing 1 mM spermine, 50 mM HEPES-KOH (pH7.6), 25 mM KCl, 5 mM MgCl2, 4 mM ATP, 2 mg/ml bovine liver tRNA^Leu, various concentrations of [^3H]Leu (60 Ci/mmol), and 10-100 nM of LRS. Reactions were initiated with enzyme and conducted in a 37° C. heat block. Aliquots (10 ul) were taken at different time points and quenched on Whatman filter pads that were presoaked with 5% trichloroacetic acid (TCA). The pads were washed three times for 10 min each with cold 5% TCA, and once with cold 100% ethanol. The washed pads were then dried. Radioactivity was quantified in a scintillation counter (Beckman Coulter)"}, "[2]": {"system": "T1, CC(C)C[C@H](N)C(=O)O", "T1 construct": "made in house", "assay": "Leucylation assay, LRS F50A/Y52A mutant", "conditions": "other: LRS F50A/Y52, leucylation, substrate leucine; pH 7.6; 37.0 °C", "experimental": "as §1, §2"}, "[3]": {"system": "CC(C)C[C@H](N)C(=O)O", "assay": "ATP-PPi exchange assay, WT LRS", "conditions": "other: absence of tRNA^Leu (ATP-PPi exchange); pH 7.6; 37.0 °C", "experimental": "The ATP-PPi exchange reaction was performed in a reaction mixture containing 2 mM [^32P]pyrophosphate (PPi) (80.70 mCi/mL), 50 mM HEPES-KOH (pH 7.6), 2 mM MgCl2, 8 mM KF, 4 mM ATP, and various concentrations of leucine and 25 nM of LRS. Reaction were initiated with enzymes and conducted in a 37° C. heat block. Aliquots (10 ul) were taken at different time points, and the reactions were stopped using lml of quenching buffer (50 mM NaPPi, 3.5% HC1O4, 2% activated charcoal). The charcoal suspension was filtered through a Whatman GF/A filter, washed four times with 5 ml of water and rinsed with 10 ml of 100% ethanol. The charcoal powder on the filters was dried, and the synthesized [^32P]ATP was counted using a scintillation counter (Beckman Coulter)."}, "[4]": {"conditions": "other: LRS WT, leucylation, substrate leucine"}}, "data": [{"substance": "LRS WT (Homo sapiens)", "values": [{"measurement": "Km", "setting": "[1]; [4]", "value": "15.9 ± 0.4", "unit": "µM"}, {"measurement": "kcat", "setting": "[1]; [4]", "value": "0.368 ± 0.009", "unit": "s⁻¹"}, {"measurement": "kcat/Km", "setting": "[1]; [4]", "value": "22900 ± 570", "unit": "M⁻¹ s⁻¹"}, {"measurement": "Km", "setting": "[1]; other: presence of tRNA^Leu (leucylation)", "value": "15.9 ± 0.4", "unit": "µM"}]}, {"substance": "LRS F50A/Y52 (Homo sapiens; F50A/Y52A)", "values": [{"measurement": "Km", "setting": "[2]", "value": "536 ± 63", "unit": "µM"}]}, {"substance": "LRS (Homo sapiens)", "values": [{"measurement": "Km", "setting": "[3]", "value": "143 ± 61", "unit": "µM"}]}]}
